Results on one substance are retold here after publication PMC3086075.

This assay addresses recombinant class C acid phosphatase from Pasteurella multocida (Pasteurella multocida). The assay is described as follows: AUC.

For orientation: stoichiometry N means the number of molecules, sites or subunits per partner or assembly. “recombinant class C acid phosphatase from Pasteurella multocida (enzyme)”: the stoichiometry N was found to be 2.
